tested on: Escherichia coli TOP10; assay: shrunken log2 fold change of peptide-encoding DNA abundance (4.5 h post-induction vs induction); higher = less antimicrobial activity (less host growth inhibition); conditions: time post-induction: 4.5 h; library: site-saturation at positions 5, 18, 19, 20
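Further: peptides expressed intracellularly from a pBAD plasmid library in pooled LB shake-flask culture, induced with 0.3% L-arabinose, DNA abundance read by NGS, three biological replicates, DESeq2 with apeglm shrinkage.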

| Sequence | shrunken log2 fold change |
| --- | --- |
| RRIRCRPPRLPRPRPRPAGNPRP | 0.0404 |
| RRIRWRPPRLPRPRPRPNNIPRP | -0.779 |
| RRIRRRPPRLPRPRPRPPMSPRP | 0.142 |
| RRIRFRPPRLPRPRPRPVCCPRP | -0.0027 |
| RRIRNRPPRLPRPRPRPLDNPRP | -0.263 |
| RRIRDRPPRLPRPRPRPAYGPRP | -0.11 |
| RRIRQRPPRLPRPRPRPQYCPRP | 0.0332 |
| RRIRVRPPRLPRPRPRPVNDPRP | -0.201 |
| RRIRTRPPRLPRPRPRPDMNPRP | -0.0432 |
| RRIRPRPPRLPRPRPRPYKMPRP | -0.605 |
| RRIRMRPPRLPRPRPRPDENPRP | 2.68 |
| RRIRDRPPRLPRPRPRPVTSPRP | -0.2 |
| RRIRVRPPRLPRPRPRPKWPPRP | 0.4 |
| RRIRGRPPRLPRPRPRPVCDPRP | 0.959 |
| RRIRERPPRLPRPRPRPNHPPRP | -0.278 |
| RRIRVRPPRLPRPRPRPLDHPRP | -0.194 |
| RRIRKRPPRLPRPRPRPAEYPRP | 0.345 |
| RRIRGRPPRLPRPRPRPGQMPRP | 0.483 |
| RRIRKRPPRLPRPRPRPARNPRP | 0.00491 |
| RRIRTRPPRLPRPRPRPHEMPRP | 0.0124 |
| RRIRLRPPRLPRPRPRPWITPRP | -0.028 |
| RRIRKRPPRLPRPRPRPHDHPRP | -0.162 |
| RRIRMRPPRLPRPRPRPWNHPRP | -0.0446 |
| RRIRMRPPRLPRPRPRPKSVPRP | 0.0926 |
| RRIRVRPPRLPRPRPRPKMYPRP | -0.252 |

| Sequence | shrunken log2 fold change |
| --- | --- |
| RRIRRRPPRLPRPRPRPVICPRP | 0.164 |
| RRIRARPPRLPRPRPRPITNPRP | -0.54 |
| RRIRKRPPRLPRPRPRPSTYPRP | -0.0529 |
| RRIRGRPPRLPRPRPRPWFKPRP | -0.824 |
| RRIRVRPPRLPRPRPRPHGSPRP | -0.156 |
| RRIRYRPPRLPRPRPRPRQGPRP | -0.074 |
| RRIRVRPPRLPRPRPRPMMPPRP | -0.302 |
| RRIRYRPPRLPRPRPRPKMWPRP | -0.113 |
| RRIRKRPPRLPRPRPRPTILPRP | -0.0105 |
| RRIRVRPPRLPRPRPRPQPTPRP | 0.408 |
| RRIRMRPPRLPRPRPRPMFHPRP | -0.244 |
| RRIRNRPPRLPRPRPRPDKHPRP | -0.0308 |
| RRIRWRPPRLPRPRPRPELTPRP | 0.772 |
| RRIRHRPPRLPRPRPRPEVDPRP | -0.00884 |
| RRIRMRPPRLPRPRPRPRFPPRP | 0.573 |
| RRIRDRPPRLPRPRPRPPRIPRP | 0.185 |
| RRIRLRPPRLPRPRPRPLPRPRP | 0.475 |
| RRIRIRPPRLPRPRPRPKVTPRP | -0.386 |
| RRIRDRPPRLPRPRPRPHKEPRP | -0.00521 |
| RRIRWRPPRLPRPRPRPIQYPRP | -0.101 |
| RRIRFRPPRLPRPRPRPEMWPRP | -0.0843 |
| RRIRGRPPRLPRPRPRPCPNPRP | 0.0353 |
| RRIRDRPPRLPRPRPRPKASPRP | 0.224 |
| RRIRSRPPRLPRPRPRPPLKPRP | 0.0467 |
| RRIRDRPPRLPRPRPRPCIQPRP | -0.0125 |

| Sequence | shrunken log2 fold change |
| --- | --- |
| RRIRLRPPRLPRPRPRPQFEPRP | -0.12 |
| RRIRYRPPRLPRPRPRPLGGPRP | -0.0546 |
| RRIRKRPPRLPRPRPRPYGLPRP | 0.0165 |
| RRIRCRPPRLPRPRPRPRVLPRP | 3.12 |
| RRIRSRPPRLPRPRPRPKWQPRP | 0.255 |
| RRIRQRPPRLPRPRPRPEENPRP | 0.00965 |
| RRIRMRPPRLPRPRPRPAIIPRP | 0.0113 |
| RRIRMRPPRLPRPRPRPLATPRP | 2.2 |
| RRIRCRPPRLPRPRPRPDNKPRP | -0.795 |
| RRIRDRPPRLPRPRPRPTYWPRP | 0.01 |
| RRIRCRPPRLPRPRPRPSFVPRP | -0.68 |
| RRIRLRPPRLPRPRPRPAMNPRP | -0.397 |
| RRIRGRPPRLPRPRPRPVYLPRP | -0.33 |
| RRIRCRPPRLPRPRPRPFGWPRP | 0.24 |
| RRIRYRPPRLPRPRPRPACEPRP | -0.0778 |
| RRIRHRPPRLPRPRPRPCWDPRP | 0.0881 |
| RRIRNRPPRLPRPRPRPPIRPRP | 0.0511 |
| RRIRARPPRLPRPRPRPECWPRP | 1.97 |
| RRIRARPPRLPRPRPRPVMGPRP | 0.177 |
| RRIRMRPPRLPRPRPRPAPEPRP | 0.874 |
| RRIRMRPPRLPRPRPRPGAAPRP | 2.24 |
| RRIRNRPPRLPRPRPRPRWFPRP | 0.173 |
| RRIRERPPRLPRPRPRPMCTPRP | 0.107 |
| RRIRFRPPRLPRPRPRPRSMPRP | -0.408 |
| RRIRERPPRLPRPRPRPMWTPRP | -0.306 |
